Numbering of substitutions follows the chain as printed. Names may count otherwise.
T1: mouse CD47 (mouse, UniProt Q61735 19-303)
T1 construct: whole, on cells; also called CD47 on mouse RBCs; CD47 on 4T1 cells
T1 sequence (looked up): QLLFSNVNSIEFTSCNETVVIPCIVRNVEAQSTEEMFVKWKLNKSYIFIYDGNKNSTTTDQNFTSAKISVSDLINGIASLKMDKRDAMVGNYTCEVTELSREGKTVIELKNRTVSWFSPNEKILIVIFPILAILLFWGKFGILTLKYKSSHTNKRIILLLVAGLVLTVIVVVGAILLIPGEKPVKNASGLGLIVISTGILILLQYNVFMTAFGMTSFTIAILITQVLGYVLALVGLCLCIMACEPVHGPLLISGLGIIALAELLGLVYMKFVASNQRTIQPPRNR

B1: Clone 14.1 (hum14 IgG1 N297Q) (antibody)
heavy: QVQLQESGPGLVKPSQTLSLTCTVSGYTFTNYYVFWVRQARGQRLEWIGDINPVNGDTNFNEKFKNRVTISADKSISTAYLQWSSLKASDTAMYYCARGGYTMDYWGQGTLVTVSSASTKGPSVFPLAPSSKSTSGGTAALGCLVKDYFPEPVTVSWNSGALTSGVHTFPAVLQSSGLYSLSSVVTVPSSSLGTQTYICNVNHKPSNTKVDKKVEPKSCDKTHTCPPCPAPELLGGPSVFLFPPKPKDTLMISRTPEVTCVVVDVSHEDPEVKFNWYVDGVEVHNAKTKPREEQYQSTYRVVSVLTVLHQDWLNGKEYKCKVSNKALPAPIEKTISKAKGQPREPQVYTLPPSR
light: DVVMTQSPLSLPVTLGQPASISCRSSQSLVHSNGNTYLHWYQQKPGKAPKLLIYKVSYRFSGVPDRFSGSGSGTDFTLKISRVEAEDVGVYYCSQNTHVPRTFGQGTKVEIKRTVAAPSVFIFPPSDEQLKSGTASVVCLLNNFYPREAKVQWKVDNALQSGNSQESVTEQDSKDSTYSLSSTLTLSKADYEKHKVYACEVTHQGLSSPVTKSFNRGEC
notes: IgG1 N297Q
B2: Clone 3.1 (hum03 IgG1 N297Q) (antibody)
heavy: EVQLVQSGAEVKKPGESLRISCKGSGYTFTNYYVFWVRQARGQRLEWIGDINPVNGDTNFNEKFKNRVTITADKSTSTAYMELSSLRSEDTAVYYCARGGYTMDYWGQGTLVTVSSASTKGPSVFPLAPSSKSTSGGTAALGCLVKDYFPEPVTVSWNSGALTSGVHTFPAVLQSSGLYSLSSVVTVPSSSLGTQTYICNVNHKPSNTKVDKKVEPKSCDKTHTCPPCPAPELLGGPSVFLFPPKPKDTLMISRTPEVTCVVVDVSHEDPEVKFNWYVDGVEVHNAKTKPREEQYQSTYRVVSVLTVLHQDWLNGKEYKCKVSNKALPAPIEKTISKAKGQPREPQVYTLPPSR
light: B1 light
notes: IgG1 N297Q
B3: Clone 1.2 (hum01 IgG4 S228P L235E) (antibody)
heavy: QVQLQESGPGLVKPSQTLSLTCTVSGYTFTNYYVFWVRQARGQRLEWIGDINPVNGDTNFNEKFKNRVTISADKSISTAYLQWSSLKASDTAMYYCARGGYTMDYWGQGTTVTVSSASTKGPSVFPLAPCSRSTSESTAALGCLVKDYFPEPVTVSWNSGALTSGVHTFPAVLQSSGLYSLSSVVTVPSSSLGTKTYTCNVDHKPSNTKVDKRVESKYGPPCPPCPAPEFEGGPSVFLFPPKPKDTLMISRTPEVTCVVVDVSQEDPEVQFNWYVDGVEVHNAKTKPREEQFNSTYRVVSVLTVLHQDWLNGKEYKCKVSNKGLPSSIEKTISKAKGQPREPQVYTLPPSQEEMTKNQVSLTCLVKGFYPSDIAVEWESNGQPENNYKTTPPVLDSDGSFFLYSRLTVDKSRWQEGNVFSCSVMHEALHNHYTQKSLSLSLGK
light: B1 light with V2I, S7T, L15P, Q17E
notes: IgG4 S228P L235E version of Clone 1; also called pVxK7b-037-hum01-HC-IgG4 S228P L235E-Pro
B4: Clone 14.2 (hum14 IgG4 S228P L235E) (antibody)
heavy: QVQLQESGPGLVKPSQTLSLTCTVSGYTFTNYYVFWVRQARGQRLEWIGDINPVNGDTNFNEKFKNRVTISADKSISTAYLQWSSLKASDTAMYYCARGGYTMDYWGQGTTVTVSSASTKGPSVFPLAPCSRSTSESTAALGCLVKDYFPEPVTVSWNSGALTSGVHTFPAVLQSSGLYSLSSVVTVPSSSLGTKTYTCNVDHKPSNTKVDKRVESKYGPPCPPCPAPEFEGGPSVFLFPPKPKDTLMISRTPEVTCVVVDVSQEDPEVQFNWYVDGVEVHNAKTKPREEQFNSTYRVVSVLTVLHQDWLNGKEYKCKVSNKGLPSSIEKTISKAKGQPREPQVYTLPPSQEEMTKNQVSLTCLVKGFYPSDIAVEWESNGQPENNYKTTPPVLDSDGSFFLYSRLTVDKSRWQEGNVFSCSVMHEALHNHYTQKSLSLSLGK
light: B1 light
notes: IgG4 S228P L235E
B5: Clone 13.2 (hum 13 IgG4 S228P L235E) (antibody)
heavy: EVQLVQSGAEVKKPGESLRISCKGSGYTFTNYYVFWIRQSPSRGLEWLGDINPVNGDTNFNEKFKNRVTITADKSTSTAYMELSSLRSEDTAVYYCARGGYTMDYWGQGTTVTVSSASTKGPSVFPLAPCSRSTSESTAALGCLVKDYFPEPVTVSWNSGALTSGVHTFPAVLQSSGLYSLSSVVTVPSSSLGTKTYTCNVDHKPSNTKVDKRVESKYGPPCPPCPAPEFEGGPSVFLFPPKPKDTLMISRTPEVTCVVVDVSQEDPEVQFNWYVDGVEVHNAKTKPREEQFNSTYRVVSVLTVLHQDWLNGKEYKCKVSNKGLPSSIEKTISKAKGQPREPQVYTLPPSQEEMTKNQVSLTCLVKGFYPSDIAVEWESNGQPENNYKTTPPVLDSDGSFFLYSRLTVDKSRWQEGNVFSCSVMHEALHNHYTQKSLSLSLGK
light: B1 light with V2I, S7T, L15P, Q17E
notes: IgG4 S228P L235E version of Clone 13
B6: Clone 3.2 (hum03 IgG4 S228P L235E) (antibody)
heavy: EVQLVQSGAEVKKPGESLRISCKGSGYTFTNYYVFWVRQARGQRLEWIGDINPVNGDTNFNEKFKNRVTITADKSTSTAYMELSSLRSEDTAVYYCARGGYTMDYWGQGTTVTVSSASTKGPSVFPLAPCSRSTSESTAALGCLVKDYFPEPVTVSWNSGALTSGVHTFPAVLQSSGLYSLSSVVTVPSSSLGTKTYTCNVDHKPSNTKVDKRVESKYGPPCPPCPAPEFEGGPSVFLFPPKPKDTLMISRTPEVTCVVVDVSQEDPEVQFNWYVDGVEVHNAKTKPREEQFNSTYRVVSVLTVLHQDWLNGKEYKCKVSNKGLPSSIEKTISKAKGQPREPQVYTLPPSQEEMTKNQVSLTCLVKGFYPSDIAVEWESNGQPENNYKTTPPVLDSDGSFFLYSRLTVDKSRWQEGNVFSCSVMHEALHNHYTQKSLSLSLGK
light: B1 light
notes: IgG4 S228P L235E
B7: Clone 5.1 (hum05 IgG1 N297Q) (antibody)
heavy: QVQLQESGPGLVKPSQTLSLTCTVSGYTFTNYYVFWVRQAPGKGLEWVSDINPVNGDTNFNEKFKNRVTISVDTSKNQFSLKLSSVTAADTAVYYCARGGYTMDYWGQGTLVTVSSASTKGPSVFPLAPSSKSTSGGTAALGCLVKDYFPEPVTVSWNSGALTSGVHTFPAVLQSSGLYSLSSVVTVPSSSLGTQTYICNVNHKPSNTKVDKKVEPKSCDKTHTCPPCPAPELLGGPSVFLFPPKPKDTLMISRTPEVTCVVVDVSHEDPEVKFNWYVDGVEVHNAKTKPREEQYQSTYRVVSVLTVLHQDWLNGKEYKCKVSNKALPAPIEKTISKAKGQPREPQVYTLPPSR
light: B1 light with V2I, S7T, L15P, Q17E, Q42L, K47Q, A48S, K50Q
notes: IgG1 N297Q
B8: Clone 5.2 (hum05 IgG4 S228P L235E) (antibody)
heavy: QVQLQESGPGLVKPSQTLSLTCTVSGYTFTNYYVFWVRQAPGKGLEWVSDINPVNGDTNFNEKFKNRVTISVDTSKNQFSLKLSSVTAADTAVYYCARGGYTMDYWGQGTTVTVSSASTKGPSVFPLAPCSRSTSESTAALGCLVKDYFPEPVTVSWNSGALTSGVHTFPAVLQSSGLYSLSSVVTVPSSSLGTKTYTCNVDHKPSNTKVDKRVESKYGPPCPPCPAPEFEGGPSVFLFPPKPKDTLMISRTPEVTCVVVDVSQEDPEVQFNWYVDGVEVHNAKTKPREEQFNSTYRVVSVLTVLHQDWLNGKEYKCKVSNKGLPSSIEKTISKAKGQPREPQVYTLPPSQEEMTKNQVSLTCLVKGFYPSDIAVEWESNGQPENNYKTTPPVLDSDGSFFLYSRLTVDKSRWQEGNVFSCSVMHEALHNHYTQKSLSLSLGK
light: B1 light with V2I, S7T, L15P, Q17E, Q42L, K47Q, A48S, K50Q
notes: IgG4 S228P L235E
B9: Clone 8.1 (hum08 IgG1 N297Q) (antibody)
heavy: QITLKESGPTLVKPTQTLTLTCTFSGYTFTNYYVFWIRQSPSRGLEWLGDINPVNGDTNFNEKFKNRFTISRDNAKNSLYLQMNSLRAEDTAVYYCARGGYTMDYWGQGTLVTVSSASTKGPSVFPLAPSSKSTSGGTAALGCLVKDYFPEPVTVSWNSGALTSGVHTFPAVLQSSGLYSLSSVVTVPSSSLGTQTYICNVNHKPSNTKVDKKVEPKSCDKTHTCPPCPAPELLGGPSVFLFPPKPKDTLMISRTPEVTCVVVDVSHEDPEVKFNWYVDGVEVHNAKTKPREEQYQSTYRVVSVLTVLHQDWLNGKEYKCKVSNKALPAPIEKTISKAKGQPREPQVYTLPPSR
light: B1 light with V2I, S7T, L15P, Q17E
notes: IgG1 N297Q

Target: T1, mouse CD47
Experiment: cell-based ELISA on mouse 4T1 cells, apparent Kd
Method: (§1) OV10 cells are grown in IMDM medium containing 10% heat inactivated fetal bovine serum (BioWest; S01520) and 4T1 cells are grown in RMPI medium containing 10% heat inactivated fetal bovine serum (BioWest; S01520). One day before assay, 3×10⁴ cells are plated in 96 well cell bind plates (Corning #3300, VWR #66025-626) so that they are 95-100% confluent at the time of assay. Cells are washed and various concentrations of purified antibodies added in either IMDM or RPMI at 37° C. for 1 hour in […]. Cells are then washed with media and incubated for an additional hour at 37° C. with HRP labeled secondary anti-human antibody (Promega) diluted 1/2500 in media. Cells are washed three times with PBS, and the peroxidase substrate 3,3′,5,5′-tetramethylbenzidine is added (Sigma; Catalog #T4444). Reactions are terminated by the addition of HCl to 0.7N, and absorbance at 450 nm is determined using a Tecan model Infinite M200 plate reader. The apparent binding affinities of these clones to human and mouse cells is determined by non-linear fits (Prism GraphPad software). […] Agglutination of human RBCs is assessed following incubation of human RBCs with various concentrations of humanized blocking only clones. Blood is diluted (1:50) and washed 3 times with PBS/EDTA/BSA. RBCs are added to U-bottomed 96 well plates with equal volumes of the antibodies (75 μl) and incubated for 3 hrs at 37° C. and overnight at 4° C.

B1 and B2 are within 1.5-fold of each other in Kd: 0.0949 nM for the first, 0.132 nM for the second.

Compared with B3, B4 is 1.7-fold lower in Kd: 0.175 nM for the first, 0.102 nM for the second.

B5 and B6 are within 1.5-fold of each other in Kd: 0.178 nM for the first, 0.202 nM for the second.

Compared with B7, B8 is 1.5-fold higher in Kd: 0.112 nM for the first, 0.172 nM for the second. The first binds more tightly here.

B9 gave a Kd of 0.205 nM.

Target: T2, human CD47 (human, UniProt Q08722 19-323)
T2 construct: whole, on cells; also called CD47 on human RBCs; CD47 on OV10 cells
T2 sequence (Q08722 19-323): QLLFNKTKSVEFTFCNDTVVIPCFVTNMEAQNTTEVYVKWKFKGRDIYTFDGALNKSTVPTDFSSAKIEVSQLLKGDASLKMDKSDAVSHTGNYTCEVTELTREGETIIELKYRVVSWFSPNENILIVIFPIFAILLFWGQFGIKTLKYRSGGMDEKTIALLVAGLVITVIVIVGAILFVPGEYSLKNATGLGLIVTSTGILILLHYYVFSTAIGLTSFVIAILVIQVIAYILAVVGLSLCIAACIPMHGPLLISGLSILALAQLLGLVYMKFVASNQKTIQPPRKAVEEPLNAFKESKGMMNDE
Experiment: cell-based ELISA on human OV10 cells, apparent Kd
Method: as §1

B1 and B2 are within 1.5-fold of each other in Kd: 0.0962 nM for the first, 0.115 nM for the second.

First: B3
Second: B4
The Kd of the first is 1.7-fold higher: 0.15 nM for the first, 0.0899 nM for the second.

B5 and B6 are within 1.5-fold of each other in Kd: 0.108 nM for the first, 0.129 nM for the second.

B7 and B8 are within 1.5-fold of each other in Kd: 0.125 nM for the first, 0.107 nM for the second.

B9 was tested, and the Kd was 0.115 nM.

Reference: US20150274826A1 (ARCH ONCOLOGY, published 2015)
